Assay results published in patent publication US6812210B2, “Urocortin-III and uses thereof” (priority 2001, dated 2004).
Changes are numbered by the printed parent chain. Where no end group is shown, it is not given here.

Legend:
CRF-R1 = target: T1, CRF-R1 (Rattus norvegicus, UniProt P35353); test: cAMP accumulation in primary rat anterior pituitary cells expressing endogenous CRF-R1; type: cell-based; conditions: FIG. 3B; Ucn III even at concentrations >1 μM
T1 construct: cells expressing endogenous CRF-R1 (cultured primary anterior pituitary cells, (5)) or CRF-R2β (A7r5 cells, (27)); endogenous in cells; host or cells: primary rat anterior pituitary cells in culture
T1 sequence (P35353 24-415): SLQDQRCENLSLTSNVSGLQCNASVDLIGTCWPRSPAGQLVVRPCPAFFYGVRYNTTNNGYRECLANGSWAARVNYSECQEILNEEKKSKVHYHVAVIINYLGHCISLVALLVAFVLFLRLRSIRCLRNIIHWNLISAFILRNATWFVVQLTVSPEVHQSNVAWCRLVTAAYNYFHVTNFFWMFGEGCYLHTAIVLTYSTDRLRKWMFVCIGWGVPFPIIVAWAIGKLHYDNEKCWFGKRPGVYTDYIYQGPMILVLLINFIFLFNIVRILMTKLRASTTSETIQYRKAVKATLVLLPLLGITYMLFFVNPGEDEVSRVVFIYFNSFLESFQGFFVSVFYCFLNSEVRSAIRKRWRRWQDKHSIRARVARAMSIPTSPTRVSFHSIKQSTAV
Method: The abilities of Ucn II and Ucn III to activate adenylate cyclase in cells expressing endogenous CRF-R1 (cultured primary anterior pituitary cells, (5)) or CRF-R2β (A7r5 cells, (27)). Rat aortic smooth muscle cells, A7r5, were plated into 48-well culture dishes and allowed to recover for 48 h. Cells were starved in DMEM/0.2% FBS overnight before the experiment. The cells were preincubated with 0.1 mM 3-isobutyl-1-methylxanthine for 30 min and then exposed to peptides for 20 min at 37° C. Rat anterior pituitary cells were established in culture (28) and treated with test peptides for 45 min at 37° C. Intracellular cAMP was extracted from all cells and measured from triplicate wells using a radioimmunoassay kit (Biomedical Technologies). Potencies were determined using the PRISM […].

[1] = target: T2, CRF binding protein (CRF-BP) (Homo sapiens, UniProt P24387); test: Binding to CRF binding protein by displacement of [D-125I-Tyr0]-hCRF; conditions: data not shown
T2 sequence (P24387 25-322): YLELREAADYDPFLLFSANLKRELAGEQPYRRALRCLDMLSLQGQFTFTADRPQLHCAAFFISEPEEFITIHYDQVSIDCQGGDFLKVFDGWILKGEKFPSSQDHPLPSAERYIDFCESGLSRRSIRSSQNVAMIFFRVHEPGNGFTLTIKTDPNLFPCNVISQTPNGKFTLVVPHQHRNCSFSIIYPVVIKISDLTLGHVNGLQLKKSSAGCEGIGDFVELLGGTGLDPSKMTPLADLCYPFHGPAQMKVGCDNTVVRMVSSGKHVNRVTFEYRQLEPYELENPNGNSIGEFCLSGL

hCRF-R1 = target: T3, hCRF-R1 (Homo sapiens, UniProt P34998); test: cAMP accumulation in CHO cells stably expressing hCRF-R1; type: cell-based; conditions: 1 μM
T3 construct: expressed in transfected cells
T3 sequence (P34998 24-415): T1 sequence (P35353 24-415) with R6H, N9S, T13A, V16I, V153M, A163G, V209I, H229Y, R356H
Method: The medium was changed at least 2 h before treatments to DMEM/0.1% FBS. The cells were preincubated with 0.1 mM 3-isobutyl-1-methylxanthine for 30 min and then exposed to peptides for 20 min at 37° C.

rats = test: Intravenous Ucn III in rats: glucagon secretion and blood sugar; type: in vivo, rat; conditions: given intravenously to rats
Description: It has been shown by others that glucagon can act directly on the beta cell to stimulate insulin secretion in a paracrine manner. Thus, Ucn III may provide a means for the beta cell to signal the alpha cell, which produces glucagon which would then, in turn, drive the beta cell. Thus, Ucn III (or any CRF-R2 agonist) may be used to stimulate and sustain islet functions.

Substance	Ability to increase cyclic AMP in cultured pituitary cells expressing CRF-R1 (CRF-R1)	Affinity for CRF-BP [1]	Activation of CRF-R1 (cAMP) at very high doses (hCRF-R1)	Glucagon secretion (rats)	Blood sugar levels (rats; subsequent to glucagon rise)
urocortin II (IVLSLDVPIGLLQILLEQARARAAREQATTNARILARVGHC; ends and bridges not checked; UniProt Q96RP3 72-112, looked up) [Ucn II, urocortin II, species (human or mouse) not specified at the place, reference compound]	low potency	neither Ucn II nor Ucn III exhibit appreciable affinity			
urocortin [Urocortin (rat)]		subnanomolar			
urocortin III (FTLSLDVPTNIMNLLFNIAKAKNLRAQAAANAHLMAQI; ends and bridges not checked; UniProt Q969E3 120-157, looked up) [Ucn III, urocortin III, species (human or mouse) not specified at the place]	inactive	neither Ucn II nor Ucn III exhibit appreciable affinity	no activation	rapidly stimulated glucagon secretion	elevates blood sugar levels
